Patent publication US20240209076A1 (KODIAK SCIENCES, published 2024)

B1: anti-IL-6 Fab, heavy chain S61R (Fab, V domains shown)
VH: EVQLVESGGGLVQPGGSLRLSCAASGFTFSPFAMSWVRQAPGKGLEWVAKISPGGSWTYYRDTVTGRFTFSLDTSKSTAYLQMNSLRAEDTAVYYCARQLWGYYALDIWGQGTLVTVSS
VL: DIQLTQSPSSLSASVGDRVTITCSASISVSYMYWYQQKPGKAPKLLIYDMSNLASGVPSRFSGSGSGTDFTLTISSLQPEDFATYYCMQWSGYPYTFGQGTKVEIK
notes: see m39
B2: anti-IL-6 Fab, heavy chain T63Q (Fab, V domains shown)
VH: EVQLVESGGGLVQPGGSLRLSCAASGFTFSPFAMSWVRQAPGKGLEWVAKISPGGSWTYYSDQVTGRFTFSLDTSKSTAYLQMNSLRAEDTAVYYCARQLWGYYALDIWGQGTLVTVSS
VL: DIQLTQSPSSLSASVGDRVTITCSASISVSYMYWYQQKPGKAPKLLIYDMSNLASGVPSRFSGSGSGTDFTLTISSLQPEDFATYYCMQWSGYPYTFGQGTKVEIK
notes: see m39
B3: anti-IL-6 Fab, heavy chain T58R (Fab, V domains shown)
VH: EVQLVESGGGLVQPGGSLRLSCAASGFTFSPFAMSWVRQAPGKGLEWVAKISPGGSWRYYSDTVTGRFTFSLDTSKSTAYLQMNSLRAEDTAVYYCARQLWGYYALDIWGQGTLVTVSS
VL: DIQLTQSPSSLSASVGDRVTITCSASISVSYMYWYQQKPGKAPKLLIYDMSNLASGVPSRFSGSGSGTDFTLTISSLQPEDFATYYCMQWSGYPYTFGQGTKVEIK
notes: see m39
B4: anti-IL-6 Fab, heavy chain V48Q (Fab, V domains shown)
VH: EVQLVESGGGLVQPGGSLRLSCAASGFTFSPFAMSWVRQAPGKGLEWQAKISPGGSWTYYSDTVTGRFTFSLDTSKSTAYLQMNSLRAEDTAVYYCARQLWGYYALDIWGQGTLVTVSS
VL: DIQLTQSPSSLSASVGDRVTITCSASISVSYMYWYQQKPGKAPKLLIYDMSNLASGVPSRFSGSGSGTDFTLTISSLQPEDFATYYCMQWSGYPYTFGQGTKVEIK
notes: see m39
B5: anti-IL-6 Fab, heavy chain T58K (Fab, V domains shown)
VH: EVQLVESGGGLVQPGGSLRLSCAASGFTFSPFAMSWVRQAPGKGLEWVAKISPGGSWKYYSDTVTGRFTFSLDTSKSTAYLQMNSLRAEDTAVYYCARQLWGYYALDIWGQGTLVTVSS
VL: DIQLTQSPSSLSASVGDRVTITCSASISVSYMYWYQQKPGKAPKLLIYDMSNLASGVPSRFSGSGSGTDFTLTISSLQPEDFATYYCMQWSGYPYTFGQGTKVEIK
notes: see m39
B6: anti-IL-6 Fab, heavy chain T63E (Fab, V domains shown)
VH: EVQLVESGGGLVQPGGSLRLSCAASGFTFSPFAMSWVRQAPGKGLEWVAKISPGGSWTYYSDEVTGRFTFSLDTSKSTAYLQMNSLRAEDTAVYYCARQLWGYYALDIWGQGTLVTVSS
VL: DIQLTQSPSSLSASVGDRVTITCSASISVSYMYWYQQKPGKAPKLLIYDMSNLASGVPSRFSGSGSGTDFTLTISSLQPEDFATYYCMQWSGYPYTFGQGTKVEIK
notes: see m39
B7: anti-IL-6 Fab, heavy chain T65D (Fab, V domains shown)
VH: EVQLVESGGGLVQPGGSLRLSCAASGFTFSPFAMSWVRQAPGKGLEWVAKISPGGSWTYYSDTVDGRFTFSLDTSKSTAYLQMNSLRAEDTAVYYCARQLWGYYALDIWGQGTLVTVSS
VL: DIQLTQSPSSLSASVGDRVTITCSASISVSYMYWYQQKPGKAPKLLIYDMSNLASGVPSRFSGSGSGTDFTLTISSLQPEDFATYYCMQWSGYPYTFGQGTKVEIK
notes: see m39
B8: anti-IL-6 Fab, heavy chain T28A (Fab, V domains shown)
VH: EVQLVESGGGLVQPGGSLRLSCAASGFAFSPFAMSWVRQAPGKGLEWVAKISPGGSWTYYSDTVTGRFTFSLDTSKSTAYLQMNSLRAEDTAVYYCARQLWGYYALDIWGQGTLVTVSS
VL: DIQLTQSPSSLSASVGDRVTITCSASISVSYMYWYQQKPGKAPKLLIYDMSNLASGVPSRFSGSGSGTDFTLTISSLQPEDFATYYCMQWSGYPYTFGQGTKVEIK
notes: see m39
B9: anti-IL-6 Fab, heavy chain V48L (Fab, V domains shown)
VH: EVQLVESGGGLVQPGGSLRLSCAASGFTFSPFAMSWVRQAPGKGLEWLAKISPGGSWTYYSDTVTGRFTFSLDTSKSTAYLQMNSLRAEDTAVYYCARQLWGYYALDIWGQGTLVTVSS
VL: DIQLTQSPSSLSASVGDRVTITCSASISVSYMYWYQQKPGKAPKLLIYDMSNLASGVPSRFSGSGSGTDFTLTISSLQPEDFATYYCMQWSGYPYTFGQGTKVEIK
notes: see m39
B10: anti-IL-6 Fab, heavy chain T28Y (Fab, V domains shown)
VH: EVQLVESGGGLVQPGGSLRLSCAASGFYFSPFAMSWVRQAPGKGLEWVAKISPGGSWTYYSDTVTGRFTFSLDTSKSTAYLQMNSLRAEDTAVYYCARQLWGYYALDIWGQGTLVTVSS
VL: DIQLTQSPSSLSASVGDRVTITCSASISVSYMYWYQQKPGKAPKLLIYDMSNLASGVPSRFSGSGSGTDFTLTISSLQPEDFATYYCMQWSGYPYTFGQGTKVEIK
notes: see m39
B11: anti-IL-6 Fab, heavy chain T65I (Fab, V domains shown)
VH: EVQLVESGGGLVQPGGSLRLSCAASGFTFSPFAMSWVRQAPGKGLEWVAKISPGGSWTYYSDTVIGRFTFSLDTSKSTAYLQMNSLRAEDTAVYYCARQLWGYYALDIWGQGTLVTVSS
VL: DIQLTQSPSSLSASVGDRVTITCSASISVSYMYWYQQKPGKAPKLLIYDMSNLASGVPSRFSGSGSGTDFTLTISSLQPEDFATYYCMQWSGYPYTFGQGTKVEIK
notes: see m39
B12: anti-IL-6 Fab, heavy chain T63K (Fab, V domains shown)
VH: EVQLVESGGGLVQPGGSLRLSCAASGFTFSPFAMSWVRQAPGKGLEWVAKISPGGSWTYYSDKVTGRFTFSLDTSKSTAYLQMNSLRAEDTAVYYCARQLWGYYALDIWGQGTLVTVSS
VL: DIQLTQSPSSLSASVGDRVTITCSASISVSYMYWYQQKPGKAPKLLIYDMSNLASGVPSRFSGSGSGTDFTLTISSLQPEDFATYYCMQWSGYPYTFGQGTKVEIK
notes: see m39
B13: anti-IL-6 Fab, heavy chain T63G (Fab, V domains shown)
VH: EVQLVESGGGLVQPGGSLRLSCAASGFTFSPFAMSWVRQAPGKGLEWVAKISPGGSWTYYSDGVTGRFTFSLDTSKSTAYLQMNSLRAEDTAVYYCARQLWGYYALDIWGQGTLVTVSS
VL: DIQLTQSPSSLSASVGDRVTITCSASISVSYMYWYQQKPGKAPKLLIYDMSNLASGVPSRFSGSGSGTDFTLTISSLQPEDFATYYCMQWSGYPYTFGQGTKVEIK
notes: see m39
B14: anti-IL-6 Fab, heavy chain T65Y (Fab, V domains shown)
VH: EVQLVESGGGLVQPGGSLRLSCAASGFTFSPFAMSWVRQAPGKGLEWVAKISPGGSWTYYSDTVYGRFTFSLDTSKSTAYLQMNSLRAEDTAVYYCARQLWGYYALDIWGQGTLVTVSS
VL: DIQLTQSPSSLSASVGDRVTITCSASISVSYMYWYQQKPGKAPKLLIYDMSNLASGVPSRFSGSGSGTDFTLTISSLQPEDFATYYCMQWSGYPYTFGQGTKVEIK
notes: see m39
B15: anti-IL-6 Fab, heavy chain T63D (Fab, V domains shown)
VH: EVQLVESGGGLVQPGGSLRLSCAASGFTFSPFAMSWVRQAPGKGLEWVAKISPGGSWTYYSDDVTGRFTFSLDTSKSTAYLQMNSLRAEDTAVYYCARQLWGYYALDIWGQGTLVTVSS
VL: DIQLTQSPSSLSASVGDRVTITCSASISVSYMYWYQQKPGKAPKLLIYDMSNLASGVPSRFSGSGSGTDFTLTISSLQPEDFATYYCMQWSGYPYTFGQGTKVEIK
notes: see m39
B16: anti-IL-6 Fab, heavy chain T65G (Fab, V domains shown)
VH: EVQLVESGGGLVQPGGSLRLSCAASGFTFSPFAMSWVRQAPGKGLEWVAKISPGGSWTYYSDTVGGRFTFSLDTSKSTAYLQMNSLRAEDTAVYYCARQLWGYYALDIWGQGTLVTVSS
VL: DIQLTQSPSSLSASVGDRVTITCSASISVSYMYWYQQKPGKAPKLLIYDMSNLASGVPSRFSGSGSGTDFTLTISSLQPEDFATYYCMQWSGYPYTFGQGTKVEIK
notes: see m39
B17: anti-IL-6 Fab, heavy chain T28K (Fab, V domains shown)
VH: EVQLVESGGGLVQPGGSLRLSCAASGFKFSPFAMSWVRQAPGKGLEWVAKISPGGSWTYYSDTVTGRFTFSLDTSKSTAYLQMNSLRAEDTAVYYCARQLWGYYALDIWGQGTLVTVSS
VL: DIQLTQSPSSLSASVGDRVTITCSASISVSYMYWYQQKPGKAPKLLIYDMSNLASGVPSRFSGSGSGTDFTLTISSLQPEDFATYYCMQWSGYPYTFGQGTKVEIK
notes: see m39
B18: anti-IL-6 Fab, heavy chain T65A (Fab, V domains shown)
VH: EVQLVESGGGLVQPGGSLRLSCAASGFTFSPFAMSWVRQAPGKGLEWVAKISPGGSWTYYSDTVAGRFTFSLDTSKSTAYLQMNSLRAEDTAVYYCARQLWGYYALDIWGQGTLVTVSS
VL: DIQLTQSPSSLSASVGDRVTITCSASISVSYMYWYQQKPGKAPKLLIYDMSNLASGVPSRFSGSGSGTDFTLTISSLQPEDFATYYCMQWSGYPYTFGQGTKVEIK
notes: see m39
B19: anti-IL-6 Fab, heavy chain T65L (Fab, V domains shown)
VH: EVQLVESGGGLVQPGGSLRLSCAASGFTFSPFAMSWVRQAPGKGLEWVAKISPGGSWTYYSDTVLGRFTFSLDTSKSTAYLQMNSLRAEDTAVYYCARQLWGYYALDIWGQGTLVTVSS
VL: DIQLTQSPSSLSASVGDRVTITCSASISVSYMYWYQQKPGKAPKLLIYDMSNLASGVPSRFSGSGSGTDFTLTISSLQPEDFATYYCMQWSGYPYTFGQGTKVEIK
notes: see m39
B20: anti-IL-6 Fab, heavy chain T28E (Fab, V domains shown)
VH: EVQLVESGGGLVQPGGSLRLSCAASGFEFSPFAMSWVRQAPGKGLEWVAKISPGGSWTYYSDTVTGRFTFSLDTSKSTAYLQMNSLRAEDTAVYYCARQLWGYYALDIWGQGTLVTVSS
VL: DIQLTQSPSSLSASVGDRVTITCSASISVSYMYWYQQKPGKAPKLLIYDMSNLASGVPSRFSGSGSGTDFTLTISSLQPEDFATYYCMQWSGYPYTFGQGTKVEIK
notes: see m39
B21: anti-IL-6 Fab, heavy chain T58V (Fab, V domains shown)
VH: EVQLVESGGGLVQPGGSLRLSCAASGFTFSPFAMSWVRQAPGKGLEWVAKISPGGSWVYYSDTVTGRFTFSLDTSKSTAYLQMNSLRAEDTAVYYCARQLWGYYALDIWGQGTLVTVSS
VL: DIQLTQSPSSLSASVGDRVTITCSASISVSYMYWYQQKPGKAPKLLIYDMSNLASGVPSRFSGSGSGTDFTLTISSLQPEDFATYYCMQWSGYPYTFGQGTKVEIK
notes: see m39

molecular target: recombinant human IL-6 (human, UniProt P05231 30-212); assay: SPR, IL-6 on CM5 chip, Fab lysate, 25 C
Sequence (P05231 30-212 limits assumed): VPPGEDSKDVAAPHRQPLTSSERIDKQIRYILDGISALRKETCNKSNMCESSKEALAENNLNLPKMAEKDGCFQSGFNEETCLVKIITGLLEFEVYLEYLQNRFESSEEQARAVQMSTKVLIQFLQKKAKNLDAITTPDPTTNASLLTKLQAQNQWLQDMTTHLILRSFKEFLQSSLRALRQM
Description: Three ranges of antigen density (100-150 RU, 300-400 RU, 400-600 RU) were obtained by using variable flow times for each chip channel, later blocked with ethanolamine. Supernatants of the 96-well filtered culture lysates were injected at 50 μL/min for 120 seconds. Fitting of dissociation curves (300 seconds) to single exponential decay curve was used for the determination of dissociation rates (koff). Chip surfaces were regenerated with 10 mM Glycine pH 1.7 solution injected at 50 μL/min during 60 seconds after every cycle of sample binding and dissociation.

Binder | koff [s⁻¹]
B1 | 0.00585
B2 | 0.0057
B3 | 0.00425
B4 | 0.0034
B5 | 0.00492
B6 | 5.53e-05
B7 | 0.00614
B8 | 0.00396
B9 | 0.00517
B10 | 0.0039
B11 | 0.00615
B12 | 0.00611
B13 | 0.0539
B14 | 0.00574
B15 | 0.00603
B16 | 0.0057
B17 | 0.00408
B18 | 0.00615
B19 | 0.00592
B20 | 0.00428
B21 | 0.0562
